The values that follow come from the supplement of paper PMC7125110.

± gives the standard error. For part of these data: This sample holds only a part of the variants without activity.

B1: glmS ribozyme (parent)
chain: AUAAAAGCGCCAGAACUACAGAAAUGUAGUUGACGAGGAGGAGGUUUAUCGAAUUUUCGGCGGAUGCCUCCAAA

Holding throughout (settings): with glucosamine-6-phosphate
Data set [1] covers variants of B1. Kind of data set: kcat; higher = faster cleavage; RNA array. The method, boiled down:
(§1)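 Over ~14 h at 37 °C, tiles were imaged as glucosamine-6-phosphate (40 μM to 10 mM) in HEPES/KCl/Mg(OAc)2 buffer flowed across sequenced MiSeq chips. The chips carried barcoded ribozyme variants transcribed in situ by E. coli RNA polymerase and tracked with a hybridised Cy3 probe. After normalisation to baseline and to non-cleaving reference variants, one- or two-exponential decay fits of per-tile medians gave kobs. kcat and KM followed from weighted Michaelis–Menten fits across concentrations.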

In data set [2] the parent is B1. Kind of data set: KM; higher = weaker cofactor use; RNA array. The essentials:
as §1

Variants of B1 are the subject of data set [3]. Kind of data set: self-cleavage kobs at 640 uM GlcN6P; higher = faster cleavage; RNA array. The method, boiled down:
as §1

Data set [4] covers variants of B1. Kind of data set: self-cleavage kobs at 10000 uM GlcN6P; higher = faster cleavage; RNA array. The essentials: as §1
Data set [5] covers variants of B1. Kind of data set: self-cleavage kobs at 2500 uM GlcN6P; higher = faster cleavage; RNA array. The essentials: as §1
In data set [6] the parent is B1. Kind of data set: self-cleavage kobs at 160 uM GlcN6P; higher = faster cleavage; RNA array. The essentials:
as §1

In data set [7] the parent is B1. Kind of data set: self-cleavage kobs at 40 uM GlcN6P; higher = faster cleavage; RNA array. The essentials:
as §1

Consider G40A U49G, for which the kcat in data set [1] came out at 0.000121 ± 1.7e-06 s⁻¹. The KM in data set [2] is 1210 ± 55 µM. The “self-cleavage kobs at 640 uM GlcN6P” value in data set [3] came to 4.19e-05 ± 1e-05 s⁻¹. Moreover, the “self-cleavage kobs at 10000 uM GlcN6P” value in data set [4] came out at 0.000108 ± 1.3e-05 s⁻¹.
As to G13U A15C U54C, the kcat in data set [1] was 0.000132 ± 1.2e-05 s⁻¹. Moreover, the “self-cleavage kobs at 2500 uM GlcN6P” value in data set [5] worked out at 0.00013 ± 3.3e-05 s⁻¹. The “self-cleavage kobs at 10000 uM GlcN6P” value in data set [4] came to 0.000122 ± 1.9e-05 s⁻¹.
Take G38C C67U C70G: the kcat in data set [1] was 1.59e-05 ± 1.8e-06 s⁻¹.
As to A12C U46A, the kcat in data set [1] came out at 0.00133 ± 0.00029 s⁻¹. The KM in data set [2] turned out to be 2440 ± 900 µM. The “self-cleavage kobs at 160 uM GlcN6P” value in data set [6] turned out to be 0.000101 ± 2.8e-05 s⁻¹. Moreover, the “self-cleavage kobs at 640 uM GlcN6P” value in data set [3] stood at 0.000302 ± 4.8e-05 s⁻¹. Moreover, the “self-cleavage kobs at 2500 uM GlcN6P” value in data set [5] amounted to 0.000533 ± 9.6e-05 s⁻¹. Further, in data set [4], the “self-cleavage kobs at 10000 uM GlcN6P” value came out at 0.00122 ± 0.00017 s⁻¹.
A15C U31C: the kcat in data set [1] amounted to 0.00282 ± 0.00061 s⁻¹. Further, the KM in data set [2] turned out to be 3830 ± 1200 µM. Also, the “self-cleavage kobs at 40 uM GlcN6P” value in data set [7] came out at 4.49e-05 ± 9.1e-06 s⁻¹. The “self-cleavage kobs at 160 uM GlcN6P” value in data set [6] amounted to 0.000136 ± 3e-05 s⁻¹. In data set [3], the “self-cleavage kobs at 640 uM GlcN6P” value stood at 0.000359 ± 4.3e-05 s⁻¹. Further, the “self-cleavage kobs at 2500 uM GlcN6P” value in data set [5] stood at 0.00104 ± 0.00023 s⁻¹. Besides, in data set [4], the “self-cleavage kobs at 10000 uM GlcN6P” value is 0.00211 ± 0.00024 s⁻¹.
In the case of G51A C70U, the kcat in data set [1] is 1.48e-05 ± 3.4e-06 s⁻¹.
In the case of G29A G32C, in data set [1], the kcat came to 0.000144 ± 1.8e-05 s⁻¹. The KM in data set [2] is 5140 ± 1500 µM. Also, the “self-cleavage kobs at 2500 uM GlcN6P” value in data set [5] worked out at 5.01e-05 ± 9.3e-06 s⁻¹. Also, the “self-cleavage kobs at 10000 uM GlcN6P” value in data set [4] amounted to 9.45e-05 ± 9.1e-06 s⁻¹.
Regarding U30C U55G, the kcat in data set [1] turned out to be 0.00036 ± 1.6e-05 s⁻¹. Also, the KM in data set [2] is 1480 ± 160 µM. In data set [3], the “self-cleavage kobs at 640 uM GlcN6P” value is 0.000105 ± 2.8e-05 s⁻¹. Besides, the “self-cleavage kobs at 2500 uM GlcN6P” value in data set [5] stood at 0.000236 ± 4.5e-05 s⁻¹. Besides, in data set [4], the “self-cleavage kobs at 10000 uM GlcN6P” value came to 0.000307 ± 5.8e-05 s⁻¹.
With C58U U69G, the kcat in data set [1] turned out to be 4.53e-05 ± 1.7e-05 s⁻¹. In addition, the “self-cleavage kobs at 40 uM GlcN6P” value in data set [7] was determined as 2.63e-05 ± 1.1e-05 s⁻¹. For the same variant, in data set [6], the “self-cleavage kobs at 160 uM GlcN6P” value is 5.15e-05 ± 1.5e-05 s⁻¹. For the same variant, in data set [3], the “self-cleavage kobs at 640 uM GlcN6P” value came to 6.7e-05 ± 1.6e-05 s⁻¹. The “self-cleavage kobs at 2500 uM GlcN6P” value in data set [5] came to 7.55e-05 ± 1.9e-05 s⁻¹.
A6G G32U: the catalytic constant (kcat) in data set [1] was below 1e-05 s⁻¹. Also, the “self-cleavage kobs at 40 uM GlcN6P” value in data set [7] was below 1e-05 s⁻¹.
On to A14U U54A, for which the kcat in data set [1] amounted to 0.00906 ± 0.0023 s⁻¹. In addition, the KM in data set [2] is 1560 ± 560 µM. In addition, the “self-cleavage kobs at 40 uM GlcN6P” value in data set [7] is 0.000324 ± 5.9e-05 s⁻¹. Moreover, the “self-cleavage kobs at 160 uM GlcN6P” value in data set [6] is 0.000834 ± 0.00014 s⁻¹. The “self-cleavage kobs at 640 uM GlcN6P” value in data set [3] came out at 0.00228 ± 0.00033 s⁻¹. Further, the “self-cleavage kobs at 2500 uM GlcN6P” value in data set [5] came to 0.00565 ± 0.00092 s⁻¹. Besides, the “self-cleavage kobs at 10000 uM GlcN6P” value in data set [4] came to 0.00909 ± 0.002 s⁻¹.
As for C16G U30G, the kcat in data set [1] is 0.000352 ± 3e-05 s⁻¹. Also, in data set [2], the KM came to 4110 ± 700 µM. Besides, the “self-cleavage kobs at 640 uM GlcN6P” value in data set [3] came out at 4.35e-05 ± 1.3e-05 s⁻¹. In addition, in data set [5], the “self-cleavage kobs at 2500 uM GlcN6P” value is 0.000146 ± 2.8e-05 s⁻¹. Moreover, in data set [4], the “self-cleavage kobs at 10000 uM GlcN6P” value amounted to 0.000246 ± 3.2e-05 s⁻¹.
Turning to G29C A53G, the kcat in data set [1] was 0.00235 ± 0.00053 s⁻¹. Also, the KM in data set [2] worked out at 2630 ± 900 µM. Moreover, the “self-cleavage kobs at 40 uM GlcN6P” value in data set [7] amounted to 4.79e-05 ± 7.8e-06 s⁻¹. Also, in data set [6], the “self-cleavage kobs at 160 uM GlcN6P” value turned out to be 0.000154 ± 2.3e-05 s⁻¹. Further, the “self-cleavage kobs at 640 uM GlcN6P” value in data set [3] was determined as 0.000398 ± 5.6e-05 s⁻¹. Also, in data set [5], the “self-cleavage kobs at 2500 uM GlcN6P” value worked out at 0.000948 ± 0.00014 s⁻¹. Besides, the “self-cleavage kobs at 10000 uM GlcN6P” value in data set [4] is 0.00209 ± 0.00021 s⁻¹.
Regarding G29A A53U, the kcat in data set [1] was determined as 0.00212 ± 0.00065 s⁻¹. Besides, in data set [7], the “self-cleavage kobs at 40 uM GlcN6P” value amounted to 9.5e-05 ± 1.9e-05 s⁻¹. In addition, in data set [6], the “self-cleavage kobs at 160 uM GlcN6P” value is 0.000233 ± 5.5e-05 s⁻¹. Moreover, the “self-cleavage kobs at 640 uM GlcN6P” value in data set [3] was 0.000595 ± 9.3e-05 s⁻¹. For the same variant, in data set [5], the “self-cleavage kobs at 2500 uM GlcN6P” value was 0.00129 ± 0.00019 s⁻¹. In data set [4], the “self-cleavage kobs at 10000 uM GlcN6P” value was 0.00276 ± 0.00055 s⁻¹.
As to G59C C70G, the kcat in data set [1] stood at 1.6e-05 ± 3.6e-06 s⁻¹.
G9U U47C: the kcat in data set [1] is below 1e-05 s⁻¹. Further, the “self-cleavage kobs at 160 uM GlcN6P” value in data set [6] is below 1e-05 s⁻¹. Besides, the “self-cleavage kobs at 640 uM GlcN6P” value in data set [3] is below 1e-05 s⁻¹. Also, in data set [5], the “self-cleavage kobs at 2500 uM GlcN6P” value is below 1e-05 s⁻¹.
C11A C67U: in data set [1], the kcat was found to be 4.14e-05 ± 2.5e-06 s⁻¹. Besides, in data set [3], the “self-cleavage kobs at 640 uM GlcN6P” value amounted to 3.1e-05 ± 1.4e-05 s⁻¹. The “self-cleavage kobs at 2500 uM GlcN6P” value in data set [5] was found to be 3.53e-05 ± 1e-05 s⁻¹. The “self-cleavage kobs at 10000 uM GlcN6P” value in data set [4] came to 4.17e-05 ± 6.9e-06 s⁻¹.
